This note sets out measurements from paper PMC1594584.

The target of assay [1] is Aβ42 F19,20T/I31P MRF (AβMRF carrying the triple mutation Phe19,20Thr and Ile31Pro in its Aβ42 portion) (not stated | S. cerevisiae) (UniProt P05453). Kind of assay: SDS electrophoresis of SDS-stable oligomers with immunoblot; yeast lysates treated with 1% SDS for 7 min at room temperature, resolved in 1.5% agarose or 7.5% polyacrylamide gels, blotted with anti-RF (BE4) or anti-Aβ (6E10); cells also grown with 6.3 mM guanidine or with HSP104 deleted; densitometry. On the technique in general: A western blot detects proteins with antibodies after separation by electrophoresis.

In assay [2] the target is AβMRF (met-Aβ42-HA-M-3xHA-RF; Aβ42 fused to the N terminus of Sup35p MRF) (not stated | S. cerevisiae) (UniProt P05453). The assay is described as above.

Where “and” joins values, the source holds several entries; their conditions need not be identical. Equal entries are not always repeated.

“Aβ42 F19,20T/I31P MRF (AβMRF carrying the triple mutation Phe19,20Thr and Ile31Pro in its Aβ42 portion) (from UniProt P05453 124-685)”: in assay [1], the stoichiometry N (commonly a count of units in the complex or per binding partner) is 2.

As for “AβMRF (met-Aβ42-HA-M-3xHA-RF; Aβ42 fused to the N terminus of Sup35p MRF) (from UniProt P05453 124-685)”, in assay [2], the monomer's share of the pool (HSP104 WT cells) came out at 34%; the monomer's share of the pool (hsp104Δ cells) is 47%; the stoichiometry N was 2 and 3 and 4.
